{"source": "patent US20090252717", "key": {"[1]": {"target": "KHC-584 (first 584 amino acids of rat KHC, expressed in E. coli) (UniProt Q2PQA9)", "sequence (Q2PQA9 1-584)": "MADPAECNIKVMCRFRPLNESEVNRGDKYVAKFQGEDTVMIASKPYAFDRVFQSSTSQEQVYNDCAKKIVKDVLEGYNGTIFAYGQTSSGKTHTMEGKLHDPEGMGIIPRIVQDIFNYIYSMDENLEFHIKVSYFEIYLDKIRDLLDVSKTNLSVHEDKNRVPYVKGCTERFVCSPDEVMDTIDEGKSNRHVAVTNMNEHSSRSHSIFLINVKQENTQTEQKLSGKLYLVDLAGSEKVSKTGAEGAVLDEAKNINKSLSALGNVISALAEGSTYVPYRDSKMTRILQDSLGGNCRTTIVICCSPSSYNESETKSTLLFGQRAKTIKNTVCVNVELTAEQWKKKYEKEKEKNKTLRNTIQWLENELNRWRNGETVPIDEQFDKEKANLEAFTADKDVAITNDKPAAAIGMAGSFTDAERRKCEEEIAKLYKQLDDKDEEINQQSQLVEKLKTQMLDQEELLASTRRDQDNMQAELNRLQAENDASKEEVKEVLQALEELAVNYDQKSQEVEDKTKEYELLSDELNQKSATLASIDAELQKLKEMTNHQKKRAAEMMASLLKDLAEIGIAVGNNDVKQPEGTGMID"}, "[2]": {"target": "immunoprecipitated endogenous mouse brain kinesin-1 (UniProt Q61768)", "sequence (Q61768 whole entry, looked up)": "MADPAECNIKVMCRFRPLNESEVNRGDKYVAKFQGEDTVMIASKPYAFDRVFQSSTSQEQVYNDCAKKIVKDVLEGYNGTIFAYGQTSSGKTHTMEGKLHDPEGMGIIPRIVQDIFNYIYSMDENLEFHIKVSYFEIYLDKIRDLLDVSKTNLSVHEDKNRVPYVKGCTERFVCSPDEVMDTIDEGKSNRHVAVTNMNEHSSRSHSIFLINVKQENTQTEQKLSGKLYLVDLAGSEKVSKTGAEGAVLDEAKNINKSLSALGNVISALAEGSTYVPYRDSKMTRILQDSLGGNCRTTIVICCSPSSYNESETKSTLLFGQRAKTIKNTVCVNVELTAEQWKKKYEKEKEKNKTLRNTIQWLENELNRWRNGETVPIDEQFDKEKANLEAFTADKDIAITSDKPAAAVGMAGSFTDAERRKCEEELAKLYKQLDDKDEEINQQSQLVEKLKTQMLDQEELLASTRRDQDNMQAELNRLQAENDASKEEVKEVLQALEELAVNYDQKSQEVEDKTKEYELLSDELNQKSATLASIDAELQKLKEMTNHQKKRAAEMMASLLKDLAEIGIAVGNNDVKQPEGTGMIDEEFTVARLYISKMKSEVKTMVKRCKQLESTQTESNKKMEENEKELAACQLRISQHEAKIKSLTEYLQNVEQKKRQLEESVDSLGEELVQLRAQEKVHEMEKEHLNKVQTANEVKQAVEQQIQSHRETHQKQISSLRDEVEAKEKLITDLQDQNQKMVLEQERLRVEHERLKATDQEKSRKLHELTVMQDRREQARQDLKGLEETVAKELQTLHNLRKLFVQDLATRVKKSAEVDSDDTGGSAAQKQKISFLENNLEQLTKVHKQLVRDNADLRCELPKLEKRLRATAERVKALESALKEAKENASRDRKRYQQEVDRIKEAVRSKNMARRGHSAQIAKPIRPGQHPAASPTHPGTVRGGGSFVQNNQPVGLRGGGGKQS"}}, "data": [{"substance": "recombinant 6-His-tagged JNK3 kinase (JNK3/SAPK1b, Upstate Biotechnology)", "values": [{"measurement": "in vitro kinase assay (32P incorporation)", "setting": "[1]", "result": "both recombinant KHC and immunoprecipitated endogenous mouse brain kinesin-1 KHC could be phosphorylated by recombinant JNK"}, {"measurement": "in vitro phosphorylation, mass spectrometry of tryptic peptides", "setting": "[1]", "result": "A single tryptic peptide was identified with evidence of phosphorylation"}, {"measurement": "in vitro kinase assay (32P incorporation)", "setting": "[2]", "result": "both recombinant KHC and immunoprecipitated endogenous mouse brain kinesin-1 KHC could be phosphorylated by recombinant JNK"}, {"measurement": "in vitro phosphorylation, autoradiogram", "setting": "[2]", "result": "Autoradiograms showed 32P incorporation in KHCs, but not KLCs"}]}]}
